Laboratory results from the supplement of paper PMC10126150.
± gives the standard deviation of the averaged measurements.

Each sequence was assayed on ATP (assay: switch fluorescence ratio, 500 uM ATP over buffer (Cy3 cluster intensity, sum of 5 cycles each) (fold (ratio)); higher = stronger signal-on switching upon ATP binding; sequences stand for … in TCGTCGGCAGCGTCAGATGTGTATAAGAGACAGTTTTTTTTTTTTTTTTTTTTTTTTT…TC). Conditions: aptamer strand: ATP DNA aptamer (quencher-CACCTGGGGGAGTATTGCGGAGGAAGG + anchor), 100 nM annealed; ATP concentration: 500 uM.
How it was run: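 Exposure to 500 uM ATP lasted 15 min at 22 °C before imaging, and a selection-buffer image was taken beforehand, for Cy3-labelled switching-strand clusters on a modified Illumina MiSeq flow-cell annealed to 100 nM quencher-labelled ATP aptamer. Five buffer/ATP cycles were run with NaOH stripping and re-annealing between them. The fluorescence ratio per cluster is summed target-cycle over summed buffer-cycle Cy3 intensity, averaged per switch-domain sequence. Clusters outside 100-1000 RFU were excluded.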

Row | Sequence | switch fluorescence ratio
1 | TGATGGTCGA | 1.02 ± 0.032
2 | TGATGTAACG | 1.012 ± 0.0082
3 | TGATGTACGT | 1 ± 0.011
4 | TGATGTGGGG | 0.97 ± 0.029
5 | TGATGTTGAC | 1 ± 0.013
6 | TGATGTTTGA | 0.9947 ± 0.0094
7 | TGATTAGAAG | 0.985 ± 0.034
8 | TGATTCAAAG | 1.01 ± 0.035
9 | TGATTCAAAT | 1.02 ± 0.0087
10 | TGATTGAGGG | 0.9572 ± 0.0056
11 | TGATTGGAGG | 0.994 ± 0.038
12 | TGATTGGGTC | 1.02 ± 0.036
13 | TGATTGGTGT | 1.02 ± 0.011
14 | TGATTGTGGG | 1.03 ± 0.033
15 | TGATTTATGA | 0.9924 ± 0.0067
16 | TGATTTGAAG | 0.9464 ± 0.007
17 | TGATTTTGAG | 1.01 ± 0.018
18 | TGATTTTGGG | 0.997 ± 0.035
19 | TGATTTTGTC | 0.9932 ± 0.0028
20 | TGATTTTTAC | 1.08 ± 0.092
21 | TGATTTTTTG | 0.969 ± 0.03
22 | TGCAAAAGGC | 0.972 ± 0.013
23 | TGCAAAATTT | 0.995 ± 0.018
24 | TGCAAACCTT | 2.39 ± 0.047
25 | TGCAACCTCA | 1.09 ± 0.043

Row | Sequence | switch fluorescence ratio
26 | TGCAAGCGGG | 0.985 ± 0.027
27 | TGCAAGGGGG | 1.06 ± 0.077
28 | TGCAAGGGGT | 1.14 ± 0.16
29 | TGCAAGGTCG | 1.03 ± 0.031
30 | TGCAAGTACA | 1.41 ± 0.063
31 | TGCAAGTGGT | 1.54 ± 0.75
32 | TGCAAGTTTG | 1 ± 0.017
33 | TGCAATATTT | 1.31 ± 0.02
34 | TGCAATGCAC | 1.558 ± 0.0038
35 | TGCAATTAAC | 3.51 ± 0.17
36 | TGCAATTGTA | 1.0195 ± 0.00099
37 | TGCACCAGG | 3.29 ± 0.44
38 | TGCAGCTAGC | 1.05 ± 0.021
39 | TGCAGGGGTA | 1.12 ± 0.2
40 | TGCAGGGTTG | 0.99591 ± 0.00085
41 | TGCATACAGT | 1.03 ± 0.046
42 | TGCATATGGG | 0.978 ± 0.0058
43 | TGCATGGCAA | 1.03 ± 0.013
44 | TGCATGTTTG | 0.975 ± 0.056
45 | TGCATTATAC | 3.59 ± 0.19
46 | TGCATTCAGT | 0.99 ± 0.048
47 | TGCATTCTGA | 1.02 ± 0.025
48 | TGCATTGGTG | 1.018 ± 0.0019
49 | TGCATTGTTT | 0.999 ± 0.015
50 | TGCATTTTGT | 0.989 ± 0.018

Row | Sequence | switch fluorescence ratio
51 | TGCCACAGCA | 1.02 ± 0.025
52 | TGCCATCCTA | 0.9913 ± 0.005
53 | TGCCCATGAT | 0.963 ± 0.018
54 | TGCCCCGCCT | 0.996 ± 0.044
55 | TGCCCCTTTT | 0.98 ± 0.013
56 | TGCCCGGGGT | 1.05 ± 0.036
57 | TGCCGAAAGC | 1.018 ± 0.0087
58 | TGCCGAAAGT | 0.962 ± 0.033
59 | TGCCGAGGCC | 0.977 ± 0.0077
60 | TGCCGCCTTG | 0.979 ± 0.024
61 | TGCCGCTTCT | 1.02 ± 0.058
62 | TGCCGGACGA | 1.065 ± 0.0037
63 | TGCCGGCGGG | 0.9629 ± 0.0043
64 | TGCCGGCTGG | 1.02 ± 0.053
65 | TGCCGGGTCT | 0.988 ± 0.04
66 | TGCCGTCGGC | 0.949 ± 0.06
67 | TGCCTGCATT | 1.02 ± 0.011
68 | TGCCTTGCCA | 1 ± 0.012
69 | TGCCTTTCGG | 0.9909 ± 0.0062
70 | TGCGATGACT | 1.45 ± 0.65
71 | TGCGATTCTG | 0.978 ± 0.032
72 | TGCGCAGCGG | 1.005 ± 0.0094
73 | TGCGCTTCTA | 0.98114 ± 0.00055
74 | TGCGGAAGGC | 1.11 ± 0.013
75 | TGCGGAGGTT | 1.019 ± 0.0037

Row | Sequence | switch fluorescence ratio
76 | TGCGGCGAGG | 1.016 ± 2e-05
77 | TGCGGGGCAG | 1.04 ± 0.072
78 | TGCGGGGGCG | 0.992 ± 0.038
79 | TGCGGGGGTG | 1.05 ± 0.018
80 | TGCGGGGTGG | 1.12 ± 0.072
81 | TGCGGGTGGT | 1.035 ± 0.0014
82 | TGCGGTAGAA | 1.01 ± 0.024
83 | TGCGTATGAA | 0.9796 ± 0.0097
84 | TGCGTCCAAG | 1.02 ± 0.029
85 | TGCGTCGGTG | 1.03 ± 0.049
86 | TGCGTCTGAT | 1.001 ± 0.0082
87 | TGCGTGAAAT | 0.9765 ± 0.0044
88 | TGCGTGGGGA | 1.04 ± 0.0057
89 | TGCTAACGTG | 0.977 ± 0.0057
90 | TGCTAGGAG | 0.995 ± 0.043
91 | TGCTAGTACC | 1.054 ± 0.0036
92 | TGCTATCATT | 1.08 ± 0.12
93 | TGCTCATAGC | 1.01 ± 0.021
94 | TGCTCCAGTC | 1.094 ± 0.0067
95 | TGCTCCGGAG | 1.018 ± 0.006
96 | TGCTCCTGTA | 1 ± 0.024
97 | TGCTCGGCGT | 0.99846 ± 0.00041
98 | TGCTCTAGGA | 1.001 ± 0.0042
99 | TGCTGAAGAT | 1.003 ± 0.0067
100 | TGCTGAGTAG | 0.9785 ± 0.0036

Row | Sequence | switch fluorescence ratio
101 | TGCTGCAGTT | 0.982 ± 0.055
102 | TGCTGGAGGA | 1.038 ± 0.006
103 | TGCTGGATTT | 0.991 ± 0.016
104 | TGCTGGCATA | 1.18 ± 0.29
105 | TGCTGGCCTG | 1.01 ± 0.019
106 | TGCTGGGGAT | 1.009 ± 0.0015
107 | TGCTGGTCTC | 1 ± 0.015
108 | TGCTGGTCTG | 1.02 ± 0.047
109 | TGCTGTATTC | 0.967 ± 0.041
110 | TGCTGTTCTC | 0.995 ± 0.018
111 | TGCTTAGTC | 1.01 ± 0.022
112 | TGCTTCATAA | 1.01 ± 0.048
113 | TGCTTGAGTC | 1.009 ± 0.0027
114 | TGCTTGGGGC | 0.99 ± 0.059
115 | TGCTTGTCTC | 1 ± 0.013
116 | TGCTTTAGCG | 1.0155 ± 0.00011
117 | TGCTTTCATG | 1.01 ± 0.027
118 | TGCTTTCTTC | 1.15 ± 0.31
119 | TGCTTTGTGT | 0.978 ± 0.025
120 | TGCTTTTAGG | 0.996 ± 0.017
121 | TGCTTTTCTT | 0.996 ± 0.018
122 | TGCTTTTTA | 0.971 ± 0.051
123 | TGGAAAAGCT | 1.06 ± 0.034
124 | TGGAAAAGGT | 1.0134 ± 0.00089
125 | TGGAAAATTC | 1.019 ± 0.0078

Row | Sequence | switch fluorescence ratio
126 | TGGAAAGTAC | 1.28 ± 0.095
127 | TGGAAGATGG | 1.01 ± 0.03
128 | TGGAAGGGCT | 1.052 ± 0.0058
129 | TGGAAGGTTA | 1.01 ± 0.025
130 | TGGAAGTCGG | 0.984 ± 0.022
131 | TGGACACTGC | 1.02 ± 0.011
132 | TGGACAGACA | 1.111 ± 0.0046
133 | TGGACGAATA | 1.39 ± 0.29
134 | TGGACGAGAG | 1.01 ± 0.019
135 | TGGACGGAAG | 0.984 ± 0.018
136 | TGGAGAAGTA | 1.09 ± 0.2
137 | TGGAGCCTTT | 1.1 ± 0.18
138 | TGGAGCGGGA | 1 ± 0.022
139 | TGGAGGTCGC | 1.01 ± 0.049
140 | TGGAGGTCTA | 1 ± 0.018
141 | TGGAGGTTAG | 1.02 ± 0.034
142 | TGGAGGTTAT | 0.9935 ± 0.0081
143 | TGGAGTAAAA | 1.03 ± 0.053
144 | TGGAGTATTT | 0.9525 ± 0.005
145 | TGGAGTGGGT | 1.01 ± 0.011
146 | TGGAGTTAGG | 0.995 ± 0.013
147 | TGGAGTTGGT | 0.987 ± 0.047
148 | TGGATATTTT | 0.993 ± 0.044
149 | TGGATCAATT | 1.01 ± 0.011
150 | TGGATCAGTG | 0.993 ± 0.046

Row | Sequence | switch fluorescence ratio
151 | TGGATGAAGA | 1.025 ± 0.0078
152 | TGGATGGCGT | 1.101 ± 0.0046
153 | TGGATGTCAT | 1.07 ± 0.059
154 | TGGATTAAGG | 1.03 ± 0.033
155 | TGGATTGGGC | 0.973 ± 0.038
156 | TGGATTGTTT | 0.994 ± 0.03
157 | TGGCAAAGTT | 0.985 ± 0.013
158 | TGGCAATGAA | 1.28 ± 0.35
159 | TGGCACAGAG | 1 ± 0.022
160 | TGGCAGCAGT | 1.09 ± 0.019
161 | TGGCAGTTTT | 1.02 ± 0.013
162 | TGGCATCTGT | 0.972 ± 0.03
163 | TGGCATTTCC | 1.18 ± 0.11
164 | TGGCCCTTGG | 1 ± 0.054
165 | TGGCCGATGG | 0.986 ± 0.052
166 | TGGCCGGGAT | 0.996 ± 0.021
167 | TGGCCGTGGC | 1.03 ± 0.05
168 | TGGCCTATCC | 1.17 ± 0.04
169 | TGGCGAATTA | 0.978 ± 0.026
170 | TGGCGCACGG | 0.953 ± 0.017
171 | TGGCGCATAA | 1.25 ± 0.059
172 | TGGCGCCATT | 1 ± 0.072
173 | TGGCGCCGGT | 0.995 ± 0.01
174 | TGGCGGAACA | 1.02 ± 0.017
175 | TGGCGGATAT | 1.06 ± 0.1

Row | Sequence | switch fluorescence ratio
176 | TGGCGGTTAG | 1.01 ± 0.019
177 | TGGCGTCTGA | 1 ± 0.013
178 | TGGCTAGGAC | 1.01 ± 0.04
179 | TGGCTATTGT | 0.9824 ± 0.0044
180 | TGGCTCTGAG | 0.9973 ± 0.0028
181 | TGGCTGACTT | 1.01 ± 0.016
182 | TGGCTGTGGG | 0.991 ± 0.016
183 | TGGCTTAGGG | 0.98975 ± 0.00065
184 | TGGCTTCGGC | 0.9979 ± 0.0053
185 | TGGCTTGAGT | 1.12 ± 0.19
186 | TGGCTTGCG | 1.01 ± 0.04
187 | TGGGAAAAAT | 0.994 ± 0.04
188 | TGGGAAAGTC | 0.993 ± 0.026
189 | TGGGAAATAT | 0.9726 ± 0.0072
190 | TGGGAAATT | 1.19 ± 0.19
191 | TGGGAACGAT | 1.011 ± 0.0034
192 | TGGGAAGAGG | 1.01 ± 0.026
193 | TGGGAAGGCG | 0.983 ± 0.012
194 | TGGGAAGGTG | 1.7 ± 0.33
195 | TGGGAAGTCA | 0.991 ± 0.012
196 | TGGGAAGTGT | 0.9621 ± 0.0013
197 | TGGGAAGTTC | 1.04 ± 0.046
198 | TGGGAAGTTT | 0.978 ± 0.013
199 | TGGGAATTGG | 0.981 ± 0.012
200 | TGGGACAGGC | 0.965 ± 0.089
